Experimental findings from article PMC3681702 are described below.

Read-outs that look alike come from different tables or passages of the source.

The target of experiment [1] is wild-type neurotrophin receptor p75 tagged with mEGFP (p75-EGFP) (human) (UniProt P08138). The experiment in a line: photon-counting histogram.
The target is the same in experiment [2]. Briefly: number and brightness.
For experiment [3] the target is unchanged. Briefly: non-reducing SDS-PAGE of immunoprecipitated protein.
For experiment [4] the target is unchanged. The experiment is described as above. The source holds these as a separate data set.
The target in experiment [5] is p75 G247C/Δ250 mutant tagged with mEGFP (human). The description is as above.
For experiment [6], the target named is p75 Δ193/C257A/G266I mutant tagged with mEGFP (human). The experiment in a line: number and brightness.
Experiment [7] deals with p75 C257A/G266I mutant tagged with mEGFP (human) (UniProt P08138). The experiment in a line: non-reducing SDS-PAGE of immunoprecipitated protein.
Experiment [8] has as its target p75 G247C mutant tagged with mEGFP (human) (UniProt P08138). The experiment is described as above.

In experiment [1], “wild-type neurotrophin receptor p75 tagged with mEGFP (p75-EGFP) (from UniProt P08138 29-427)” showed a median brightness normalised to EGFP of 1.71 x EGFP, a stoichiometry N of 3 and a stoichiometry N (EGFP molecules per complex) of 1 to 5. In experiment [2], this substance showed an average brightness normalised to EGFP, center of the TGN of 6.9 x EGFP; an average brightness normalised to EGFP, periphery of the TGN of 10.4 x EGFP; a stoichiometry N (molecules per oligomer) of 8.8. The percent recovered as dimer in experiment [3] came to 6.9%. Further, the percent recovered as dimer in experiment [4] was 5.8%.

“p75 G247C/Δ250 mutant tagged with mEGFP (receptor)” registered a percent recovered as dimer in experiment [5] of 56%.

As to “p75 Δ193/C257A/G266I mutant tagged with mEGFP (receptor)”, the stoichiometry N (molecules per oligomer) in experiment [6] was determined as 2.9.

In turn, “p75 C257A/G266I mutant tagged with mEGFP (from UniProt P08138 29-427) (receptor)” yielded a percent recovered as dimer in experiment [7] of 0.8%.

Turning to “p75 G247C mutant tagged with mEGFP (from UniProt P08138 29-427) (receptor)”, the percent recovered as dimer in experiment [8] was 29%.
